Reference: article PMC10637977, “The preferential transport of NO3^− by full-length Guillardia theta anion channelrhodopsin 1 is enhanced by its extended cytoplasmic domain” (The Journal of Biological Chemistry, 2023)

Target: the molecule itself
Assay: SDS-PAGE and Western blot; P. pastoris cells expressing the protein compared with a negative control; immunoblotting with an anti-His tag antibody; bands assigned to monomer and dimer by molecular mass

B1: full-length Guillardia theta anion channelrhodopsin 1 (GtACR1_full) (natural protein, UniProt L1J207 1-438, looked up)
chain: MSSITCDPAIYGEWSRENQFCVEKSLITLDGIKYVQLVMAVVSACQVFFMVTRAPKVPWEAIYLPTTEMITYSLAFTGNGYIRVANGKYLPWARMASWLCTCPIMLGLVSNMALVKYKSIPLNPMMIAASSICTVFGITASVVLDPLHVWLYCFISSIFFIFEMVVAFAIFAITIHDFQTIGSPMSLKVVERLKLMRIVFYVSWMAYPILWSFSSTGACIMSENTSSVLYLLGDALCKNTYGILLWATTWGLLNGKWDRDYVKGRNVDGTLMPEYEQDLEKGNTERYEDARAGETFEVKMFGRTLTSVRRSRRRPRRDIVFNGGDRNRLSDSDSERRRRRKKYQRKDSESENSSDESMGSEHEKNRRKGKKKNKENRRSAPPKEDSTSDTLRDAEIKRIMDLMKRNAGSDIPGLDGDGRLRDDGGLIPTRNEEHDDSA
modifications: all-trans-retinal bound to Lys238 via a protonated Schiff base linkage
notes: Guillardia theta anion channelrhodopsin 1 (GtACR1), full length, 438 amino acids (rhodopsin domain plus cytoplasmic domain, CPD); Calculated molecular mass 51.0 kDa; Details of construction and expression are in the Supporting information; also called full-length GtACR1; source: P. pastoris SMD1168H, recombinant expression (pPICZ B vector, codon-optimised gene); not shown: His8, C-terminal, kept
- stoichiometry N: 2

B2: GtACR1 without the CPD (GtACR1_ΔCPD), C-terminal eight-histidine tag (domain or fragment, Guillardia theta, UniProt L1J207 1-295, looked up)
chain: MSSITCDPAIYGEWSRENQFCVEKSLITLDGIKYVQLVMAVVSACQVFFMVTRAPKVPWEAIYLPTTEMITYSLAFTGNGYIRVANGKYLPWARMASWLCTCPIMLGLVSNMALVKYKSIPLNPMMIAASSICTVFGITASVVLDPLHVWLYCFISSIFFIFEMVVAFAIFAITIHDFQTIGSPMSLKVVERLKLMRIVFYVSWMAYPILWSFSSTGACIMSENTSSVLYLLGDALCKNTYGILLWATTWGLLNGKWDRDYVKGRNVDGTLMPEYEQDLEKGNTERYEDARAGET
modifications: all-trans-retinal bound to Lys238 via a protonated Schiff base linkage
notes: Guillardia theta anion channelrhodopsin 1 (GtACR1) with the C-terminal cytoplasmic domain (CPD, 143 amino acids) deleted; composed of 295 amino acids; Calculated molecular mass 34.4 kDa; also called CPD-deleted GtACR1; GtACR1 rhodopsin domain; source: P. pastoris SMD1168H, recombinant expression (pPICZ B vector, codon-optimised gene); not shown: His8, C-terminal, kept
- stoichiometry N: 2
